Data taken from patent publication US20250197448A1, “CYCLOPEPTIBODIES AND USES THEREOF” (University of Rochester, priority 2022, published 2025).
Starred links: 1 amine or outer side, 2 acyl side, 3 side chain; linkers in the order of their positions; H or OH if unused. Positions of bridges follow the written chain, without caps; N, C: chain ends. Non-standard residues stand in square brackets, D forms with d. No end group written: not given here. pCaaF = p-(2-chloroacetamido)-phenylalanine, O=C(CCl)Nc1ccc(C[C@H](N[*:1])C(=O)[*:2])cc1

Assays:
[1] = biological target: T1, PD-L1 expressed on the surface of MDA-MB-231 cells (Homo sapiens, UniProt Q9NZQ7); experiment: confocal microscopy imaging of MDA-MB-231 cells; type: cell-based; conditions: anti-Fc-FITC staining
T1 construct: known to express high levels of PD-L1 on their surface; endogenous in cells; host or cells: MDA-MB-231
T1 sequence (Q9NZQ7 19-290): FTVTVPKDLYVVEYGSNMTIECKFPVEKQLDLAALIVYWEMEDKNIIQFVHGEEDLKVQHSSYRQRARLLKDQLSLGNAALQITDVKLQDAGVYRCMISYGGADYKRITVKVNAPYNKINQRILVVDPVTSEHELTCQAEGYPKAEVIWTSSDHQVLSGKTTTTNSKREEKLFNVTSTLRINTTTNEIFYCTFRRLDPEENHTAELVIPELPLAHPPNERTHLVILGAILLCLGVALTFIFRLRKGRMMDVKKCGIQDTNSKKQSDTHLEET
Procedure: Cyclopeptibodies can be applied for detection and imaging of a target protein in cells and other biological systems. To illustrate this aspect of the invention, breast cancer cells MDA-MB-231 cells were treated with PD-L1 targeting cRK10 (pCaaF)-Tras-Fc. MDA-MB-231 cells are known to express high levels of PD-L1 on the cell membrane. After treatment with cRK10 (pCaaF)-Tras-Fc, the cyclopeptibody bound to the surface PD-L1 was labeled with fluorescein-conjugated anti-human Fc antibody (‘anti-Fc-FITC’) and cells were imaged using confocal microscopy.

[2] = biological target: T2, PD-L1 receptor on MDA-MB-231 cells (Homo sapiens, UniProt Q9NZQ7); experiment: flow cytometry of MDA-MB-231 cells, PD-L1 labeling with FITC anti-human IgG Fc; type: cell-based
T2 construct: known to express high levels of PD-L1 on their surface; endogenous in cells; host or cells: MDA-MB-231
T2 sequence (Q9NZQ7 19-290): as above
Procedure: The cells were then incubated with fluorescein-conjugated anti-human IgG Fc antibody and analyzed by flow cytometry. The same experiment was carried out in parallel using commercially available anti-PD-L1 antibody as positive control and various negative controls.
Flow Cytometry Analysis. […] When confluent, media was aspirated, cells were washed once with 1×DPBS (no calcium, no magnesium) (Gibco). Adherent cells were detached from the petri dish with 1 mL of accutase (Gibco) pre-warmed to 37° C., followed by incubated for 5 min at 37° C. Cells were spun down using centrifugation. Supernatant was removed and cells were washed three times with staining buffer (1×PBS with 0.5% BSA). Cells were resuspended in Eppendorf tubes in 100 μL PBS at a concentration of 107cells per mL. […] Eppendorf tubes were then placed on the platform shaker for gently shaking for 1 hour at room temperature. After 1 hour, cells were spun down using centrifugation, then supernatant was removed. […] Cells were washed as described above, then resuspended in 400 μL staining buffer. […] The cells of interest were gated using Forward and Side scatter (FSC/SSC). 10,000 singlet events were collected for each specimen.

PD-L1 = biological target: T3, PD-L1 (Homo sapiens, UniProt Q9NZQ7); experiment: in vitro PD-L1 binding assay (plate-immobilized PD-L1); conditions: Q6 vs. Q12 spacer
T3 construct: poly-histidine (C); made in house
T3 sequence (Q9NZQ7 19-290): as above
Procedure: Streptavidin Binding Assay. For the streptavidin binding assays, streptavidin-coated plates (Sigma-Aldrich) were used. For the Keap1, Shh and PD-L1 binding assay, target protein was immobilized on microtiter plates by incubating 100 μL of a 4 μM protein solution in PBS buffer overnight at 4° C., followed by decanting the protein solution and blocking with 0.5% bovine serum albumin in PBS for 2 h at room temperature. After washing (3×150 μL of PBS with 0.05% Tween-20), each well was incubated with 100 μL of purified FLAG-tagged cyclopeptibody at varying concentrations for 1 hour at room temperature. After washing three times with wash buffer, each well was incubated with 100 μL of 1:2500 dilution of HRP-conjugate mouse anti-FLAG polyclonal antibody (Sigma-Aldrich) for 1 hour at room temperature. After washing three times with wash buffer, 100 μL of 2.2 mM o-phenylenediamine dihydrochloride, 4.2 mM urea hydrogen peroxide, 100 mM dibasic sodium phosphate, and 50 mM sodium citrate, pH 5.0, were added to each well, followed by measurement of the absorbance at 450 nm after 10-20 min using a Tecan Infinite 1000 plate reader. Equilibrium dissociation constants (Kp) were determined by fitting the dose-response curves to a 1:1 binding isotherm equation via nonlinear regression. using SigmaPlot. Mean values and standard deviations were calculated from experiments performed in triplicate. […]

Substance: FLAG-(GS)2-TYLCGAISLAZKAQIKESL-(Q)6-(Fc)^1-H6 (DYKDDDDKGSGSTYLCGAISLA[pCaaF]KAQIKESLQQQQQQ-{Fc-H6}; thioether 16-23) [cRK10-Tras-Fc]
- recognition of surface PD-L1 by fluorescent imaging [1]: able to efficiently recognize PD-L1
- median fluorescence intensity (MFI) relative to positive control ([2]; MDA-MB-231 cells, 0.09 mg/mL): comparable median fluorescence intensity (MFI) to that of the positive control anti-PD-L1 antibody
- staining / labeling of PD-L1 receptors on MDA-MB-231 cells (in words) ([2]; concentration not given at the place): selective labeling of PD-L1 receptors
- higher PD-L1 binding affinity compared to FLAG-cRK10-Q12-Tras-Fc-His (PD-L1): six-fold higher
